Experimental data: paper PMC9482650, “Quantitative fragmentomics allow affinity mapping of interactomes” (Nature Communications, 2022)

T1: ARHGEF11, O15085
T1 sequence (O15085 42-136, limits assumed, looked up): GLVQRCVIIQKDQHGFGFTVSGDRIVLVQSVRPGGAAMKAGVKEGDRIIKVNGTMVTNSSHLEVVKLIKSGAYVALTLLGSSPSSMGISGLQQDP

T2: RHPN1, Q8TCX5
T2 sequence (Q8TCX5 508-602, limits assumed, looked up): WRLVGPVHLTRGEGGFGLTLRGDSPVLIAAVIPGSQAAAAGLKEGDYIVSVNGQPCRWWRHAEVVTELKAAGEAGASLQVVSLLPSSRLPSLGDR

T3: SNTG1, Q9NSN8
T3 sequence (Q9NSN8 52-150, limits assumed, looked up): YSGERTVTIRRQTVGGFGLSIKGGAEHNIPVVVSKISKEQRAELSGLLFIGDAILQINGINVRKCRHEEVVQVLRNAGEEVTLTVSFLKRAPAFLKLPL

T4: NHERF3_3, Q5T2W1
T4 sequence (Q5T2W1 238-333, limits assumed, looked up): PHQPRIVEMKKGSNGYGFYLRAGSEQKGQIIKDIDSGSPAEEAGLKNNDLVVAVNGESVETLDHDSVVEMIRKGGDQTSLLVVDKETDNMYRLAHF

T5: NHERF3_1, Q5T2W1
T5 sequence (Q5T2W1 4-100, limits assumed, looked up): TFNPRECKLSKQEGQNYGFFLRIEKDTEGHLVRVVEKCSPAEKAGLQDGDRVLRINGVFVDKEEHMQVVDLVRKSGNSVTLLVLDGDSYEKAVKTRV

T6: RADIL, Q96JH8
T6 sequence (Q96JH8 971-1071, limits assumed, looked up): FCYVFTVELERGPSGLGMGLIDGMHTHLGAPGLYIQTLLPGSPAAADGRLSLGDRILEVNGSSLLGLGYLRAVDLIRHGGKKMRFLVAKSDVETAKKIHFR

T7: GRIP1_2, Q9Y3R0
T7 sequence (Q9Y3R0 145-248, limits assumed, looked up): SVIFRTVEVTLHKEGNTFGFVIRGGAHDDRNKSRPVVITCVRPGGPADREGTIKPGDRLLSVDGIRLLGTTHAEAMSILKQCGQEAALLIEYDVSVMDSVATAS

T8: LIN7C, Q9NUP9
T8 sequence (Q9NUP9 88-185, limits assumed, looked up): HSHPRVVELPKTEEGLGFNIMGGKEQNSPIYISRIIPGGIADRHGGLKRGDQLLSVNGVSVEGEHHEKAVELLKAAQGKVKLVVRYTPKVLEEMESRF

T9: TJP3_3, O95049
T9 sequence (O95049 375-456, limits assumed, looked up): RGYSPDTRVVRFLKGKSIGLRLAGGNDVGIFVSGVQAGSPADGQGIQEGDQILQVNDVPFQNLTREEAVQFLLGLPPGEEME

T10: SYNJ2BP, P57105
T10 sequence (P57105 8-110, limits assumed, looked up): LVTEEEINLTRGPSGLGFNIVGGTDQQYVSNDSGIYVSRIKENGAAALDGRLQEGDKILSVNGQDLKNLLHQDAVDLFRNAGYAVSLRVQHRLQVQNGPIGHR

T11: GRIP1_3, Q9Y3R0
T11 sequence (Q9Y3R0 247-346, limits assumed, looked up): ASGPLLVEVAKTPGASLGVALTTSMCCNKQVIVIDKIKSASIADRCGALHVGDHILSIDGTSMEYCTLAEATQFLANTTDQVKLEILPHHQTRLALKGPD

T12: APBA2_1, Q99767
T12 sequence (Q99767 563-664, limits assumed, looked up): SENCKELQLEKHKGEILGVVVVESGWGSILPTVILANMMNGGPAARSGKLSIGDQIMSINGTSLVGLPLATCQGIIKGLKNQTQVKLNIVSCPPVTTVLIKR


Tests used:
Assay in all cases: holdup assay
Parameters in all cases: key: below the threshold = too weak to quantify, mostly under pKd 3.1 to 4
Conditions in all cases: plain residues with an end cap or a label only (N-terminal biotin on a linker: ado-ado)
[1] = molecular target: T1, ARHGEF11, O15085
[2] = molecular target: ARHGEF12, Q9NZN5-2
[3] = molecular target: DLG2_2, Q15700
[4] = molecular target: PDZRN4_1, Q6ZMN7
[5] = molecular target: MAGI1_1, Q96QZ7
[6] = molecular target: CASK, O14936
[7] = molecular target: T2, RHPN1, Q8TCX5
[8] = molecular target: T3, SNTG1, Q9NSN8
[9] = molecular target: T4, NHERF3_3, Q5T2W1
[10] = molecular target: T5, NHERF3_1, Q5T2W1
[11] = molecular target: HTRA1, Q92743
[12] = molecular target: T6, RADIL, Q96JH8
[13] = molecular target: T7, GRIP1_2, Q9Y3R0
[14] = molecular target: DLG2_3, Q15700
[15] = molecular target: T8, LIN7C, Q9NUP9
[16] = molecular target: GRIP2_6, Q9C0E4
[17] = molecular target: TJP1_2, Q07157
[18] = molecular target: IL16_4, Q14005
[19] = molecular target: Inadl_2, Q8NI35
[20] = molecular target: LNX1_2, Q8TBB1
[21] = molecular target: T9, TJP3_3, O95049
[22] = molecular target: Inadl_10, Q8NI35
[23] = molecular target: T10, SYNJ2BP, P57105
[24] = molecular target: T11, GRIP1_3, Q9Y3R0
[25] = molecular target: T12, APBA2_1, Q99767
[26] = molecular target: GRID2IP_1, A4D2P6
Chain of GRID2IP_1, A4D2P6 (A4D2P6 1-87): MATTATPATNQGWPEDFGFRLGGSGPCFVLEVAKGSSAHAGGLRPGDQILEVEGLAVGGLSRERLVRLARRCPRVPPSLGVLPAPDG

Chain of LNX1_2, Q8TBB1 (Q8TBB1 371-470): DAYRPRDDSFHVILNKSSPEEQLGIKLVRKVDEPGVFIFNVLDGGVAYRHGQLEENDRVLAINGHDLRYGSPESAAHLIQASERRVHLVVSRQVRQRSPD
Chain of HTRA1, Q92743 (Q92743 360-477): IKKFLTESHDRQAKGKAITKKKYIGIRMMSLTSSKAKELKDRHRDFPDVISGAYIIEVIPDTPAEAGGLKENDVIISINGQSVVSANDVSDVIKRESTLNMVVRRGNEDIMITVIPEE
Chain of CASK, O14936 (O14936 487-570): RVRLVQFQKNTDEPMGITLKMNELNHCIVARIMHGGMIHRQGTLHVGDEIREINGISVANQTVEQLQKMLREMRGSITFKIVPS
Chain of IL16_4, Q14005 (Q14005 1229-1329): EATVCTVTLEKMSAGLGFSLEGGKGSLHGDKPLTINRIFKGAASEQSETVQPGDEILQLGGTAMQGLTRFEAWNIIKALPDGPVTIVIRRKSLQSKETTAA
Chain of MAGI1_1, Q96QZ7 (Q96QZ7 1-106): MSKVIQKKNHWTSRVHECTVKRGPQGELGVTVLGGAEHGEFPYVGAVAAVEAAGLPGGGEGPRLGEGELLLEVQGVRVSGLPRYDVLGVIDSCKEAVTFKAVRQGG
Chain of ARHGEF12, Q9NZN5-2 (Q9NZN5 other isoform, or with tags, fused parts or gaps): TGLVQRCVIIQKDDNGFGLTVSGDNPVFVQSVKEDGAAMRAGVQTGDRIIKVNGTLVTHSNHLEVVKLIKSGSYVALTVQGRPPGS
Chain of Inadl_2, Q8NI35 (Q8NI35 238-335): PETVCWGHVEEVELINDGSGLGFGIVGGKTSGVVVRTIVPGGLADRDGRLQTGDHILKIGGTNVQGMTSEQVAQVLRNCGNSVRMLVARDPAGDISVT
Chain of TJP1_2, Q07157 (Q07157 181-274): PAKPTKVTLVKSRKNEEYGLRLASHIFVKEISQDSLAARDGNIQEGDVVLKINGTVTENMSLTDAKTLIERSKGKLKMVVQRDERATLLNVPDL
Chain of Inadl_10, Q8NI35 (Q8NI35 1673-1763): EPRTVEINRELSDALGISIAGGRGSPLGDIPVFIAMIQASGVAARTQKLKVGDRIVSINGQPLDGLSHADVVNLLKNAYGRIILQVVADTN
Chain of PDZRN4_1, Q6ZMN7 (Q6ZMN7 213-318): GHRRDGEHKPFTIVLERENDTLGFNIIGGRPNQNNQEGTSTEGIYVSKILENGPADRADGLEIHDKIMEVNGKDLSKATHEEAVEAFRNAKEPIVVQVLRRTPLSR
Chain of GRIP2_6, Q9C0E4 (Q9C0E4 648-740): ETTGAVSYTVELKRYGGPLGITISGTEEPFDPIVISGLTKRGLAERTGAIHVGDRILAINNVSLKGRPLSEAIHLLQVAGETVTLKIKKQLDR

Binder | pKd [1] | pKd [2] | pKd [3] | pKd [4] | pKd [5] | pKd [6] | pKd [7] | pKd [8] | pKd [9] | pKd [10] | pKd [11] | pKd [12] | pKd [13] | pKd [14] | pKd [15] | pKd [16] | pKd [17] | pKd [18] | pKd [19] | pKd [20] | other results
LRYARPADAL [PPP1R3G, B7ZBB8] | below the threshold | below the threshold | below the threshold | below the threshold | below the threshold | below the threshold | below the threshold | below the threshold | below the threshold | 3.9 | 3.67 | below the threshold | below the threshold | below the threshold | below the threshold | below the threshold | below the threshold | below the threshold | below the threshold | below the threshold | pKd [21]: below the threshold; pKd [22]: below the threshold; pKd [23]: below the threshold; pKd [24]: below the threshold; pKd [25]: below the threshold; pKd [26]: below the threshold
QELLEYETTV [XKR7, Q5GH72] | 4.56 | 4.02 | 4.84 | 4.55 | below the threshold | below the threshold | 4.66 | 5.14 | below the threshold | 3.93 | 4.69 | 4.73 | below the threshold | 3.55 | 4.79 | 3.55 | below the threshold | below the threshold | below the threshold | 3.73 | pKd [21]: 3.5; pKd [22]: below the threshold; pKd [23]: 4.98; pKd [24]: below the threshold; pKd [25]: below the threshold; pKd [26]: below the threshold
GDHLDRRVVL [VAC14, Q08AM6] | below the threshold | 3.61 | below the threshold | below the threshold | below the threshold | below the threshold | below the threshold | below the threshold | below the threshold | below the threshold | 4.25 | 3.52 | below the threshold | below the threshold | 4.04 | below the threshold | below the threshold | below the threshold | below the threshold | below the threshold | pKd [21]: below the threshold; pKd [22]: below the threshold; pKd [23]: below the threshold; pKd [24]: below the threshold; pKd [25]: below the threshold; pKd [26]: below the threshold
SKSLERATQL [COMMD3, Q9UBI1] | 4.57 | 4.79 | 3.83 | 3.89 | below the threshold | below the threshold | 4.13 | 3.51 | 3.8 | 5.82 | 3.89 | 3.63 | 3.5 | 3.71 | below the threshold | below the threshold | 3.51 | 3.95 | below the threshold | below the threshold | pKd [21]: below the threshold; pKd [22]: below the threshold; pKd [23]: 3.73; pKd [24]: below the threshold; pKd [25]: below the threshold; pKd [26]: below the threshold
